We go through two molecules from patent US20210355229A1 (JIANGSU HENGRUI MEDICINE, published 2021).

As usually defined, the Kd is the concentration at which binding is half-saturated. A lower Kd goes with tighter binding. Broadly, the koff is the rate constant with which the complex falls apart. The term kon denotes the second-order rate constant of association. Usually IC50 stands for the concentration at which inhibition is half-maximal. Broadly, the EC50 is the concentration at which the effect is half-maximal.

Assay [1] deals with T1, human OX40 on Jurkat-NF-Kb luc-hOX40 cells (human, UniProt P43489 29-277).
T1 sequence (looked up): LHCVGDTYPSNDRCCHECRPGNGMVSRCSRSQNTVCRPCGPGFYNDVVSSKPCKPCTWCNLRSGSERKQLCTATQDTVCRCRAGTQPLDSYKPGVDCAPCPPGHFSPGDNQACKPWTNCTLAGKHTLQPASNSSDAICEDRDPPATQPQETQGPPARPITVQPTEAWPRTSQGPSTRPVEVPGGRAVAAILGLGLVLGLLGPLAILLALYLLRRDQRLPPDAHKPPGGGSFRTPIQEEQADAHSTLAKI
As to the kind of experiment: cell-based or functional assay.

Assay [2] addresses T2, human OX40-His protein (sinobiological # 10481-H08H) (human, UniProt P43489 29-216).
T2 construct: Bought; analyte in Biacore; not shown: His tag
T2 sequence (looked up): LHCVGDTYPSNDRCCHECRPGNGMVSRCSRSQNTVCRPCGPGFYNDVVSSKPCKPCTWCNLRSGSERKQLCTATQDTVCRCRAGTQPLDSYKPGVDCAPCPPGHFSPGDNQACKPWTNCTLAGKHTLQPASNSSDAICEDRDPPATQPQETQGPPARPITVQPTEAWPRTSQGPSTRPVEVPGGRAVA
As to the kind of experiment: SPR (Biacore T200), antibody coupled to CM5 chip, OX40-His as analyte, 1:1 model. The method, then: Using the kit provided by Biacore, the recombinant anti-OX40 antibody to be tested of the present invention was covalently connected to the CM5 (GE) chip by NHS standard amino coupling method. A series of concentration gradients of human OX40-His protein (sinobiological # 10481-H08H) diluted in the same buffer were then loaded into each cycle at a flow rate of 30 μL/min. After loading, the chip was regenerated using regeneration reagent provided in the kit. The antigen-antibody binding kinetics was traced for 3 minutes, and the dissociation kinetics was traced for 10 minutes. The resulting data were analyzed by using BIAevaluation software (GE) with 1:1 (Langmuir) binding model.

Assay [3] has as its target T3, human OX40-FC-biotin (human OX40 recombinant protein with Fc tag, Acro Biosystems OX40-H5255, labeled with … (human, UniProt P43489 29-216, labeled with biotin (site not stated))).
T3 construct: range 29-216; Bought (Acro Biosystems OX40-H5255; printed once as OXO-H5255), expressed in HEK293; also called human Bio-OX40-FC; not shown: Fc tag of the bought protein
T3 sequence (looked up): T2 sequence (looked up)
As to the kind of experiment: blocking ELISA: OX40L coated, biotin-OX40-Fc pre-incubated with antibody, SA-HRP. The method, then:
The well-plate was coated with the OX40 ligand (Acrobiosystem, OXL-H52Q8), blocked, added the gradient-diluted antibody to be tested (the antibody was diluted in a solution comprising human Bio-OX40-FC (Acrobiosystem, OX40-H5255, labeled with biotin), pre-incubated for 40 minutes, and then added into the plate), incubated for 40 minute, and washed. SA-HRP (Jackson Immunoresearch, 016-030-084) was then added and incubated for 40min. The developing solution and stop solution were added, and the OD value was measured.

Assay [4] has as its target T3, human OX40-FC-biotin (human OX40 …). Briefly: capture ELISA, biotin-OX40-Fc. The method, then: 20xPBS buffer was diluted to 1 xwith deionized water. […] 100 μL of the diluted primary antibody was added to each well (the antibody to be tested was 5-fold diluted from the concentration of 10000 ng/ml, resulting in seven gradients, namely 10000 ng/ml, 2000 ng/ml, 400 ng/ml, 80 ng/ml, 16 ng/ml, 3.2 ng/ml, and 0.64 ng/ml, blank wells merely contained dilution solution, i.e., 2.5% skimmed milk in PBST), and incubated at 37° C. for 40 minutes. The plate was washed for 4 times with PBST, human OX40-FC-biotin (Acro biosystem, OXO-H5255, labeled biotin) was diluted with 2.5% skimmed milk in PBST, 100 μl was added to each well, incubated at 37° C. for 40 min, and the plate was washed for 4 times with PB ST. 100 μL TMB developing solution was added to each well, incubated for 3-15 minutes in dark at room temperature, 50 μl stop solution (1M sulfuric acid) was added to each well. The parameters were set for the microplate reader, the OD value was read at 450-630nm, and the test data were saved.
(ELISA stands for enzyme-linked immunosorbent assay.)

B1: humanized antibody 2G3 (antibody, human IgG1, kappa, V domains shown)
VH: QVQLQESGPGLVKPSETLSLTCTVSGYSISRYSVHWVRQPPGKGLEWIGMIWDGGNTDYNAALKSRFTISRDNAKNTLYLQMNSLRAEDTAVYYCARNPLYFSYAMDYWGQGTLVTVSS
VL: DIQMTQSPSSLSASVGDRVTITCRASQDISNYLNWYQQKPDQSPKLLIIYTSRLQSGVPSRFSGSGSGTDYTLTISSLQPEDFATYYCQQVNTFPFTFGQGTKLEIKR
notes: also called 2G3 (hu2G3 VH1.1 + hu2G3 VL1)
Take B1: in assay [1], the “EC50 (nM), activation of reporter gene (luciferase, Jurkat-NF-Kb luc-hOX40 cells with Raji cells, anti-CD3 coated)” value was determined as 2.29 nM. In assay [2], this molecule showed a Kd of 4.63 nM, a koff of 0.00202 s⁻¹ and a kon of 437000 M⁻¹ s⁻¹. Besides, in assay [3], the IC50 was 1.88 nM.

B2: humanized antibody hu4B5-V7 (antibody, human IgG1, kappa, V domains shown)
VH: QVQLKESGPGLVKPSETLSLTCTVSGFSLTSYGLHWFRQPPGKGLEWIGVIWSGGSTDYNAAFISRVTISKEDSKSQVSLKLSSVTAADTAVYYCAREEYDVWGQGTTVTVSS
VL: DIQMTQSPSSLSASVGDRVTITCRASQDISNYLNWYQQKPGGVPKLLIYYTSRLHSGVPSRFSGSGSGTDYTLTISSLQPEDVATYYCQQGNTLPWTFGGGTKVEIKR
Regarding B2, the “EC50 (nM), activation of reporter gene (luciferase, Jurkat-NF-Kb luc-hOX40 cells with Raji cells, anti-CD3 coated)” value in assay [1] was determined as 0.341 nM. In addition, the EC50 in assay [4] turned out to be 0.254 µg/mL. Moreover, in assay [2], binding was characterised by a dissociation constant (Kd) of 2.81 nM, the koff was 0.000369 s⁻¹ and the kon is 131000 M⁻¹ s⁻¹. Further, in assay [3], the IC50 worked out at 0.725 nM.
